Measurements taken from patent US6440702.

Columns and labels:
[1] = biological target: T1, human CNTF receptor alpha component on MG87/CNTFR fibroblasts (human, UniProt P26992 23-342); experiment: displacement of 125I-rat CNTF from MG87/CNTFR cells (human CNTF receptor)
T1 construct: whole, on cells; Mouse fibroblast line transfected with the human CNTFalpha receptor gene; also called CNTFRalpha; MG87/huCNTFR
T1 sequence (looked up): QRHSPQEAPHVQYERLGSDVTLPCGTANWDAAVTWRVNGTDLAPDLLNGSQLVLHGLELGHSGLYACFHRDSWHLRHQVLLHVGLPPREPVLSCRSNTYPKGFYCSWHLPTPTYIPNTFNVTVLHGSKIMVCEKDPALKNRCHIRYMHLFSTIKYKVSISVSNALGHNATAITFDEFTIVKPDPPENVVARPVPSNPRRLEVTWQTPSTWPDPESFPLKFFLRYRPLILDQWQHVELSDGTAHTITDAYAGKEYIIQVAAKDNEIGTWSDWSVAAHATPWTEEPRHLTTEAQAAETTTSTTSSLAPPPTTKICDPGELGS
Protocol: MG87/CNTFR is a fibroblast cell line transfected with the human CNTFα receptor gene (Squinto, et al., 1990, Neuron 5:757–766; Davis et al., 1991, Science 253:59–63). Binding Assays Binding was performed directly on cell monolayers. Cells in culture wells were washed once with assay buffer consisting of phosphate buffered saline (PBS; pH 7.4), 0.1 mM bacitracin, 1 mM PMSF, 1 µg/ml leupeptin, and 1 mg/ml BSA. […] Non-specific binding was determined in the presence of 1,000-fold excess of unlabelled CNTF. Specific binding towards MG87/CNTFR was 80–90%. Data were analyzed using the […] program (ISI, Philadelphia, Pa.).

[2] = biological target: T2, rat CNTF receptor on rat superior cervical ganglia (SCG) neurons (rat, UniProt Q08406 23-342); experiment: displacement of 125I-rat CNTF from rat SCG neuron monolayers
T2 construct: whole, on cells; also called rat receptor; SCGs
T2 sequence (looked up): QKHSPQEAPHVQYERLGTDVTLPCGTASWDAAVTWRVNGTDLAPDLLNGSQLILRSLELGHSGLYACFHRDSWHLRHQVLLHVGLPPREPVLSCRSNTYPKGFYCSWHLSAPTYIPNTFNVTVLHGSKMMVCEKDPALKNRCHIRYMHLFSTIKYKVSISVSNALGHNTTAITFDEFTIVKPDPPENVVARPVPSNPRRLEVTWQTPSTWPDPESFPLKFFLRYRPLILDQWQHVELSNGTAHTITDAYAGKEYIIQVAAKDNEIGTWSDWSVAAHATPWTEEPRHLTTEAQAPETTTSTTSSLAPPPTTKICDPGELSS

B1: recombinant rat CNTF (ciliary neurotrophic factor) (ligand)
chain: AFAEQTPLTLHRRDLCSRSIWLARKIRSDLTALMESYVKHQGLNKNINLDSVDGVPVASTDRWSEMTEAERLQENLQAYRTFQGMLTKLLEDQRVHFTPTEGDFHQAIHTLMLQVDAFAYQLEELMVLLEQKIPENEADGMPATVGDGGLFEKKLWGLKVLQELSQWTVRSIHDLRVISSHQMGISALESHYGAKDKQM
notes: also called unlabelled rat CNTF
In the case of B1, the IC50 [1] is reported as 2.8 nM and the IC50 [2] is reported as 0.28 nM.

B2: recombinant human CNTF (ciliary neurotrophic factor) (ligand)
chain: AFTEHSPLTPHRRDLCSRSIWLARKIRSDLTALTESYVKHQGLNKNINLDSADGMPVASTDQWSELTEAERLQENLQAYRTFHVLLARLLEDQQVHFTPTEGDFHQAIHTLLLQVAAFAYQIEELMILLEYKIPRNEADGMPINVGDGGLFEKKLWGLKVLQELSQWTVRSIHDLRFISSHQTGIPARGSHYIANNKKM
notes: Position numbers (C17, Q63) count the methionine as 1; also called rHCNTF; hCNTF
B2 was tested, and the IC50 [1] was 30 nM, the “fold less potent than rat CNTF” value [1] was 12 fold and the IC50 [2] was 25 nM. For the same binder, the “fold less potent than unlabelled rat CNTF in displacing 125I-rat CNTF” value [2] was 90 fold.
